Data published in patent publication US20090298769.

Legend:
[1] = test system: β3 integrin cytoplasmic peptide specific for tyrosine-747 (DTANNPLYpKEATSTFT-COOH)
[2] = test system: recombinant β3 integrin cytoplasmic tail-GST fusion protein
[3] = test system: β3 integrin cytoplasmic peptide specific for tyrosine-759 (KEATSTFTNITYpRGT-COOH)
[4] = test system: control peptide KEATSTFTNIT FRGTCOOH
[5] = test system: control peptide DTANNPLF KEATSTFT-COOH

Substance | [γ-32P] ATP incorporation, in vitro kinase assay [1] | [γ-32P] ATP incorporation, in vitro kinase assay [2] | [γ-32P] ATP incorporation, in vitro kinase assay [3] | [γ-32P] ATP incorporation, in vitro kinase assay (control peptide, lower incorporation) [4] | [γ-32P] ATP incorporation, in vitro kinase assay (control peptide, lower incorporation) [5]
c-Src of HUVEC (endogenous) | In the presence of Tyr-747/Tyr-759 β3 integrin cytoplasmic peptide, a dramatic increase in [γ-^32P] ATP incorporation was observed as compared to control peptides devoid of tyrosine motifs | the immunoprecipitated c-Src can phosphorylate β3 integrin cytoplasmic domain | In the presence of Tyr-747/Tyr-759 β3 integrin cytoplasmic peptide, a dramatic increase in [γ-^32P] ATP incorporation was observed as compared to control peptides devoid of tyrosine motifs | a dramatic increase in [γ-^32P] ATP incorporation was observed as compared to control peptides devoid of tyrosine motifs | a dramatic increase in [γ-^32P] ATP incorporation was observed as compared to control peptides devoid of tyrosine motifs
purified, recombinant full-length c-Src |  | Recombinant purified c-Src also phosphorylated the β3 integrin whereas no phosphorylation was observed without the substrate |  |  | 
